Source: patent publication US5264366A, “Protease deficient bacillus” (Genencor, Inc., priority 1991, dated 1993)
Substitutions are numbered along the chain they refer to. In names and notes the source's numbering stands. *1 amine or outer side, *2 acyl side, *3 side chain or, on linkers, in order; H or OH if unused. Where a SMILES comes first, the peptide text is derived from it. The star is where a group is joined. pNA = O=[N+]([O-])c1ccc(N*)cc1; Suc = O=C(CCC(=O)[*:2])[*:1]

T1: B. amyloliquefaciens subtilisin, wild type (gly-166) (Bacillus amyloliquefaciens, UniProt P00782)
T1 construct: codons for the mature subtilisin corresponding to that secreted by the B. amyloliquefaciens; made in house; host or cells: Bacillus subtilis BG2036 (protease deficient), plasmid pS4-5
T1 sequence (P00782 108-382): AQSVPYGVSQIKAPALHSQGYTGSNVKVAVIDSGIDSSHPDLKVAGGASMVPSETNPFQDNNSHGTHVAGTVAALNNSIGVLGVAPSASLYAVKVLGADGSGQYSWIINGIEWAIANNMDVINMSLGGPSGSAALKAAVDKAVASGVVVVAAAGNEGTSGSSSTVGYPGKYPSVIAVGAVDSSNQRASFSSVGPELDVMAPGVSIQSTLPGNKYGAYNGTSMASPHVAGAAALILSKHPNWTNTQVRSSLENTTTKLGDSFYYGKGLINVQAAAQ

B1: B. amyloliquefaciens subtilisin variant ala + 166 (A166, glycine+166 substituted) (Bacillus amyloliquefaciens; G273A) (protein)
chain: T1 sequence (P00782 108-382) with G166A
notes: codons for the mature subtilisin corresponding to that secreted by the B. amyloliquefaciens; made in house; host or cells: Bacillus subtilis BG2036 (protease deficient)
B2: B. amyloliquefaciens subtilisin variant asp + 166 (D166, glycine+166 substituted) (Bacillus amyloliquefaciens; G273D) (protein)
chain: T1 sequence (P00782 108-382) with G166D
notes: as for B1
B3: B. amyloliquefaciens subtilisin variant glu + 166 (E166, glycine+166 substituted) (Bacillus amyloliquefaciens; G273E) (protein)
chain: T1 sequence (P00782 108-382) with G166E
notes: as for B1
B4: B. amyloliquefaciens subtilisin variant phe + 166 (glycine+166 substituted) (Bacillus amyloliquefaciens; G273F) (protein)
chain: T1 sequence (P00782 108-382) with G166F
notes: as for B1
B5: B. amyloliquefaciens subtilisin variant hys + 166 (glycine+166 substituted) (Bacillus amyloliquefaciens; G273H) (protein)
chain: T1 sequence (P00782 108-382) with G166H
notes: as for B1
B6: B. amyloliquefaciens subtilisin variant lys + 166 (glycine+166 substituted) (Bacillus amyloliquefaciens; G273K) (protein)
chain: T1 sequence (P00782 108-382) with G166K
notes: as for B1
B7: B. amyloliquefaciens subtilisin variant asn + 166 (glycine+166 substituted) (Bacillus amyloliquefaciens; G273N) (protein)
chain: T1 sequence (P00782 108-382) with G166N
notes: as for B1
B8: B. amyloliquefaciens subtilisin variant arg + 166 (glycine+166 substituted) (Bacillus amyloliquefaciens; G273R) (protein)
chain: T1 sequence (P00782 108-382) with G166R
notes: as for B1
B9: B. amyloliquefaciens subtilisin, wild type (gly-166) (Bacillus amyloliquefaciens) (protein)
chain: T1 sequence (P00782 108-382)
notes: codons for the mature subtilisin corresponding to that secreted by the B. amyloliquefaciens; made in house; host or cells: Bacillus subtilis BG2036 (protease deficient), plasmid pS4-5

Legend:
Assay in all cases: Kinetic parameters from progress curves, p-nitroanilide substrates
[1] = target: T1, B. amyloliquefaciens subtilisin, wild type (gly-166); format: biochemical; details: 25° C., 0.1M tris buffer, pH 8.6
Description: (§1) B. subtilis strain BG2036 obtained by the method of Example 11 was transformed by the plasmids of Examples 14, 15 or 20 and by pS4-5 as a control. Transformants were plated or cultured in shaker flasks for 16 to 48 h at 37° C. in LB media plus 12.5 μg/ml chloramphenicol. Mutant enzymatically active subtilisin was recovered by dialyzing cell broth against 0.01M sodium phosphate buffer, pH 6.2. The dialyzed broth was then titrated to pH 6.2 with 1N HCl and loaded on a 2.5×2 cm column of CM cellulose (CM-52 Whatman). After washing with 0.01M sodium phosphate, pH 6.2, the subtilisins (except mutants at position +222) were eluted with the same buffer made 0.08N in NaCl. The mutant subtilisins at position +222 were each eluted with 0.1M sodium phosphate, pH 7.0. The purified mutant and wild type enzymes were then used in studies of oxidation stability, Km, Kcat, Kcat/Km ratio, pH optimum, and changes in substrate specificity.
(§2) Various mutants for glycine+166 were screened for modified Kcat, Km and Kcat/Km ratios. Kinetic parameters were obtained by analysis of the progress curves of the reactions. The rate of reaction was measured as a function of substrate concentration. Data was analyzed by fitting to the Michaelis-Menton equation using the non-linear regression algorithm of Marquardt (Marquardt, D. W. 1963, "J. Soc. Ind. Appl. Math." 11, 431-41).

[2] = substrate: C[C@H](NC(=O)CCC(=O)O)C(=O)N[C@@H](C)C(=O)N1CCC[C@H]1C(=O)N[C@@H](Cc1ccccc1)C(=O)Nc1ccc([N+](=O)[O-])cc1; format: biochemical, B. amyloliquefaciens; details: other: 25° C., 0.1M tris buffer, pH 8.6
Description: (§3) The procedure of Examples 13-14 was followed in substantial detail, except that the mutagenesis primer differed (the 37 mer shown in FIG. 13 was used), the two restriction enzymes were SacI and XmaIII rather than PstI and KpnI and the resulting constructions differed, as shown in FIG. 13.
as §1, §2

[3] = substrate: CC(C)[C@H](NC(=O)c1ccccc1)C(=O)NCC(=O)N[C@@H](CCCNC(=N)N)C(=O)Nc1ccc([N+](=O)[O-])cc1; format: biochemical, B. amyloliquefaciens; details: other: 25° C., 0.1M tris buffer, pH 8.6
Description: as §3, §1, §2

[4] = substrate: CC(C)[C@H](NC(=O)c1ccccc1)C(=O)NCC(=O)N[C@@H](CCCNC(=N)N)C(=O)Nc1ccc([N+](=O)[O-])cc1; format: biochemical; details: other: 25° C., 0.1M tris buffer, pH 8.6
Description: as §1, §2

Molecule	Kcat [1]	Km [2]	kcat [2]	Km [3]	kcat [3]	Km [4]	kcat [4]
C[C@H](NC(=O)CCC(=O)O)C(=O)N[C@@H](C)C(=O)N1CCC[C@H]1C(=O)N[C@@H](Cc1ccccc1)C(=O)Nc1ccc([N+](=O)[O-])cc1 [sAAPFpN, succinyl-L-Alanyl-L-Alanyl-L-Prolyl-L-Phenylalanyl-p-nitroanilide] (Suc-AAPF-pNA)	37 s⁻¹	–	–	–	–	–	–
B1	–	27 µM	19 s⁻¹	–	–	–	–
B2	–	580 µM	3 s⁻¹	41 µM	2 s⁻¹	–	–
B3	–	340 µM	11 s⁻¹	27 µM	2 s⁻¹	–	–
B4	–	14 µM	3 s⁻¹	–	–	–	–
B5	–	110 µM	15 s⁻¹	–	–	–	–
B6	–	34 µM	15 s⁻¹	–	–	–	–
B7	–	140 µM	26 s⁻¹	120 µM	1 s⁻¹	–	–
B8	–	62 µM	19 s⁻¹	–	–	–	–
B9	–	–	–	–	–	1100 µM	2 s⁻¹
